The values that follow come from patent US20250011747.

The data set concerns LMWK (natural substrate of KLK1).

Sequence of Kb (KLK1 extracted from porcine pancreas) (chain, as listed by the source): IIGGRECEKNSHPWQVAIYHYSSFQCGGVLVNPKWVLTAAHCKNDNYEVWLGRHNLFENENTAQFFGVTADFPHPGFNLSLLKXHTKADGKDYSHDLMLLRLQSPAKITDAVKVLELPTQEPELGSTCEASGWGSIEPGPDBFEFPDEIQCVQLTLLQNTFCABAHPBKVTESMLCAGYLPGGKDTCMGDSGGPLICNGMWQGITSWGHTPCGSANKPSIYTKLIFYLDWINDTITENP
Sequence of PEG-Kb (pancreatic kallikrein I for injection, PEG10K-modified Kb) (chain, as listed by the source): as above

Turning to “Kb (KLK1 extracted from porcine pancreas)”, the Bradykinin production µg/mg(enzyme), molar ratio of substrate to enzyme 1:1 (µg/mg(enzyme)) stood at 20.9; the Bradykinin production µg/mg(enzyme), molar ratio of substrate to enzyme 5:1 (µg/mg(enzyme)) was 90.8; the Bradykinin production µg/mg(enzyme), molar ratio of substrate to enzyme 10:1 (µg/mg(enzyme)) was determined as 166; the Bradykinin production µg/mg(enzyme), molar ratio of substrate to enzyme 15:1 (µg/mg(enzyme)) worked out at 218. In addition, the Bradykinin production µg/mg(enzyme), molar ratio of substrate to enzyme 20:1 (µg/mg(enzyme)) came out at 288.

As for “PEG-Kb (pancreatic kallikrein I for injection, PEG10K-modified Kb)”, the Bradykinin production µg/mg(enzyme), molar ratio of substrate to enzyme 1:1 (µg/mg(enzyme)) was found to be 11.3; the Bradykinin production µg/mg(enzyme), molar ratio of substrate to enzyme 5:1 (µg/mg(enzyme)) was determined as 44.6; the Bradykinin production µg/mg(enzyme), molar ratio of substrate to enzyme 10:1 (µg/mg(enzyme)) worked out at 80; the Bradykinin production µg/mg(enzyme), molar ratio of substrate to enzyme 15:1 (µg/mg(enzyme)) is 104. In addition, the Bradykinin production µg/mg(enzyme), molar ratio of substrate to enzyme 20:1 (µg/mg(enzyme)) was found to be 120.
